For this data set the following is noted: acetylation at K3.

On to protein VII: K3Q acetyl mimic, for which the localisation_or_trafficking result was “no change”.
